Reference: the supplement of paper PMC9112550, “Optimization of the antimicrobial peptide Bac7 by deep mutational scanning” (BMC Biology, 2022)

System: Escherichia coli TOP10
Experiment: shrunken log2 fold change of peptide-encoding DNA abundance (4.5 h post-induction vs induction); higher = less antimicrobial activity (less host growth inhibition)
Details: time post-induction: 4.5 h; library: site-saturation at positions 5, 18, 19, 20
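Also: peptides expressed intracellularly from a pBAD plasmid library in pooled LB shake-flask culture, induced with 0.3% L-arabinose, DNA abundance read by NGS, three biological replicates, DESeq2 with apeglm shrinkage.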

Sequence | shrunken log2 fold change
RRIRFRPPRLPRPRPRPHLSPRP | -0.219
RRIRFRPPRLPRPRPRPHNPPRP | -0.288
RRIRFRPPRLPRPRPRPHPFPRP | -0.105
RRIRFRPPRLPRPRPRPHPGPRP | -0.137
RRIRFRPPRLPRPRPRPHQAPRP | -0.0233
RRIRFRPPRLPRPRPRPHRFPRP | -0.0456
RRIRFRPPRLPRPRPRPHSGPRP | 0.0508
RRIRFRPPRLPRPRPRPHSPPRP | -0.389
RRIRFRPPRLPRPRPRPHSYPRP | -0.0495
RRIRFRPPRLPRPRPRPHTLPRP | -0.62
RRIRFRPPRLPRPRPRPHVQPRP | -0.0901
RRIRFRPPRLPRPRPRPHWRPRP | 0.121
RRIRFRPPRLPRPRPRPHWWPRP | 0.154
RRIRFRPPRLPRPRPRPHYAPRP | -0.285
RRIRFRPPRLPRPRPRPHYMPRP | -0.737
RRIRFRPPRLPRPRPRPHYSPRP | -0.65
RRIRFRPPRLPRPRPRPIAAPRP | 0.417
RRIRFRPPRLPRPRPRPIDMPRP | -0.727
RRIRFRPPRLPRPRPRPIDNPRP | 2.36
RRIRFRPPRLPRPRPRPIEIPRP | -0.143
RRIRFRPPRLPRPRPRPIENPRP | -0.193
RRIRFRPPRLPRPRPRPIEPPRP | 0.242
RRIRFRPPRLPRPRPRPIFEPRP | -0.0328
RRIRFRPPRLPRPRPRPIFHPRP | -0.295
RRIRFRPPRLPRPRPRPIFQPRP | -0.46

Sequence | shrunken log2 fold change
RRIRFRPPRLPRPRPRPIGLPRP | -0.251
RRIRFRPPRLPRPRPRPIHAPRP | -0.0507
RRIRFRPPRLPRPRPRPIHIPRP | -0.022
RRIRFRPPRLPRPRPRPILVPRP | -0.152
RRIRFRPPRLPRPRPRPIMMPRP | -0.529
RRIRFRPPRLPRPRPRPIMRPRP | 0.0101
RRIRFRPPRLPRPRPRPINDPRP | -0.241
RRIRFRPPRLPRPRPRPIPYPRP | -0.102
RRIRFRPPRLPRPRPRPIQCPRP | -0.105
RRIRFRPPRLPRPRPRPIQGPRP | 0.0616
RRIRFRPPRLPRPRPRPIQRPRP | -0.107
RRIRFRPPRLPRPRPRPIRLPRP | 0.0615
RRIRFRPPRLPRPRPRPISFPRP | -0.0661
RRIRFRPPRLPRPRPRPISHPRP | -0.202
RRIRFRPPRLPRPRPRPISSPRP | -0.0616
RRIRFRPPRLPRPRPRPITHPRP | -0.49
RRIRFRPPRLPRPRPRPIVIPRP | -0.205
RRIRFRPPRLPRPRPRPIWFPRP | -0.129
RRIRFRPPRLPRPRPRPIWKPRP | 0.248
RRIRFRPPRLPRPRPRPIWPPRP | 0.21
RRIRFRPPRLPRPRPRPIYLPRP | -0.626
RRIRFRPPRLPRPRPRPKCFPRP | -0.108
RRIRFRPPRLPRPRPRPKENPRP | -0.222
RRIRFRPPRLPRPRPRPKFCPRP | 0.00718
RRIRFRPPRLPRPRPRPKGQPRP | 0.105

Sequence | shrunken log2 fold change
RRIRFRPPRLPRPRPRPKHCPRP | -0.0918
RRIRFRPPRLPRPRPRPKHDPRP | -0.168
RRIRFRPPRLPRPRPRPKIYPRP | -0.328
RRIRFRPPRLPRPRPRPKLGPRP | -0.0528
RRIRFRPPRLPRPRPRPKNFPRP | 0.0482
RRIRFRPPRLPRPRPRPKPFPRP | 0.0515
RRIRFRPPRLPRPRPRPKQKPRP | -0.00156
RRIRFRPPRLPRPRPRPKQSPRP | 0.328
RRIRFRPPRLPRPRPRPKRHPRP | 0.134
RRIRFRPPRLPRPRPRPKRRPRP | 0.0555
RRIRFRPPRLPRPRPRPKSLPRP | 0.0638
RRIRFRPPRLPRPRPRPKVPPRP | -0.109
RRIRFRPPRLPRPRPRPKWRPRP | 0.413
RRIRFRPPRLPRPRPRPKWVPRP | -0.193
RRIRFRPPRLPRPRPRPLCDPRP | -0.196
RRIRFRPPRLPRPRPRPLDNPRP | 0.0244
RRIRFRPPRLPRPRPRPLGDPRP | 0.4
RRIRFRPPRLPRPRPRPLGEPRP | 0.0158
RRIRFRPPRLPRPRPRPLGKPRP | -0.17
RRIRFRPPRLPRPRPRPLHDPRP | -0.107
RRIRFRPPRLPRPRPRPLHFPRP | 0.0202
RRIRFRPPRLPRPRPRPLHMPRP | -1.06
RRIRFRPPRLPRPRPRPLHTPRP | -0.262
RRIRFRPPRLPRPRPRPLIPPRP | -0.651
RRIRFRPPRLPRPRPRPLISPRP | -0.178
